Assay: (R)-2-octanol oxidation activity of the purified enzyme (specific activity, optimum pH, optimum temperature)
Assay type: biochemical, Pichia finlandica
Settings: after Superdex 200 gel filtration
Procedure: On the other hand, oxidation activity on (R)-2-octanol can be measured as follows. The activity can be validated by incubating at 30° C. the reaction mixture containing Tris-HCl buffer (pH 8.5, 50 mM), 2.5 mM NAD^+, 5 mM (R)-2-octanol, and the enzyme and by measuring increase of absorbance at 340 nm accompanying generation of NADH. 1 U was defined as the amount of the enzyme catalyzing generation of 1 μmol of NADH for 1 minute.
The highest specific activity of the purified enzyme was about 91 U/mg-protein which is the activity of oxidizing (R)-2-octanol.
We examined (R)-2-octanol dehydrogenase activity of the enzyme obtained from Example 3 changing pH by using phosphate buffer (KPB), Tris-HCl buffer, Glycine buffer. […] As a result, the optimum pH of the enzyme was from 8.0 to 11.0.
We examined (R)-2-octanol oxidation activity of the enzyme obtained from Example 3 changing only temperature in the standard reaction conditions. […] As a result, the optimum temperature of the enzyme was from 45 to 55.

B1: (R)-2-octanol dehydrogenase from Pichia finlandica: NAD+-dependent (R)-2-octanol dehydrogenase purified from Pichia finlandica DSM 70280; amino acid sequence SEQ ID NO:2 (protein, listed as Pichia finlandica)
chain: MSYNFHNKVAVVTGALSGIGLSVAKKFLQLGAKVTISDVSGEKKYHETVVALKAQNLNTDNLHYVQADSSKEEDNKKLISETLATFGGLDIVCANAGIGKFAPTHETPFDVWKKVIAVNLNGVFLLDKLAINYWLEKSKPGVIVNMGSVHSFVAAPGLAHYGAAKGGVKLLTQTLALEYASHGIRVNSVNPGYISTPLIDEVPKERLDKLVSLHPIGRLGRPEEVADAVAFLCSQEATFINGVSLPVDGGYTAQ
highest specific activity of the purified enzyme, oxidizing (R)-2-octanol: about 91 U/mg-protein

Reference: US7202069B2, “(R)-2-octanol dehydrogenases, methods for producing the enzymes, DNA encoding the enzymes, and methods for producing alcohols using the enzymes” (Daicel Chemical Industries, Ltd., priority 2000, dated 2007)
